Measured values taken from paper PMC2629585, “Local Inflammation Induces Complement Crosstalk Which Amplifies the Antimicrobial Response” (PLoS Pathogens, 2009).

Biological target: T1, C1q (UniProt P02745 23-245; P02746 28-253; P02747 29-245)
T1 construct: complement C1q subcomponent subunit A; complement C1q subcomponent subunit B; complement C1q subcomponent subunit C; source: bought: Quidel (San Diego, CA); copies: + +
Assay: ELISA; competition; 0.8 ug CRP immobilised; 0.8 ug C1q with increasing L-ficolin or 0.8 ug L-ficolin with increasing C1q; TBS, 0.05% Tween-20, 1% HSA, pH 7.4, 2.5 mM calcium
Settings: both partners purified

T1 sequence (P02745 23-245, chain 1 of 3): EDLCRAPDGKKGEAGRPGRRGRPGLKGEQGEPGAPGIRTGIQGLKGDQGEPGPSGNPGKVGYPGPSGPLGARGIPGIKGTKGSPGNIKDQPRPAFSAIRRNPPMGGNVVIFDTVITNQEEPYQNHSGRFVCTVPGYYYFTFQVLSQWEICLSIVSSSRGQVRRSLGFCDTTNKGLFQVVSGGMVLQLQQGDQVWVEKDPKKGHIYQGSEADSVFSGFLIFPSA
T1 sequence (P02746 28-253, chain 2 of 3): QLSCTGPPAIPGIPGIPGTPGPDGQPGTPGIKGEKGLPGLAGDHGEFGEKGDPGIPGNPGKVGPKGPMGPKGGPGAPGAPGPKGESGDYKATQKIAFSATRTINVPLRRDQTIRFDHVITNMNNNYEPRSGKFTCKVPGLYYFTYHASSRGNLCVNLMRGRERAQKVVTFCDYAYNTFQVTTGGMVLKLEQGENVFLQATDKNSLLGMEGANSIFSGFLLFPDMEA
T1 sequence (P02747 29-245, chain 3 of 3): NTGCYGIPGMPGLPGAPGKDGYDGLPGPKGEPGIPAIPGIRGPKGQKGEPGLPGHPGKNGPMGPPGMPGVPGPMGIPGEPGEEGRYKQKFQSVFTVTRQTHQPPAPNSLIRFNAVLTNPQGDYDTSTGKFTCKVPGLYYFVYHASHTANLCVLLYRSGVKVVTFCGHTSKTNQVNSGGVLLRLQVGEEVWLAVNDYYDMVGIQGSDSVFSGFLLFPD

B1: C-reactive protein (CRP), human, purified (Sigma) (natural protein, UniProt P02741 19-224, looked up)
chain: QTDMSRKAFVFPKESDTSYVSLKAPLTKPLKAFTVCLHFYTELSSTRGYSIFSYATKRQDNEILIFWSKDIGYSFTVGGSEILFEVPEVTVAPVHICTSWESASGIVEFWVDGKPRVRKSLKKGYTVGAEASIILGQEQDSFGGNFEGSQSLVGDIGNVNMWDFVLSPDEINTIYLGGPFSPNVLNWRALKYEVQGEVFTKPQLWP
notes: human C-reactive protein, bought from Sigma; purity checked by SDS PAGE and mass spectrometry; source: bought: Sigma
  binding result: binds
